Measured values taken from paper doi:10.1101/307710, “Assignment of the resting state of the secondary active transporter BetP by integrating spectroscopic measurements and molecular simulations” (bioRxiv, 2018).

Molecular target: the molecule itself
Test: PELDOR (DEER) spectroscopy; spin-labelled BetP in E. coli polar lipid proteoliposomes (lipid to protein 20:1), 200 mM Tris-HCl pH 7.5 in deuterated water, with 500 mM NaCl or with 300 mM NaCl and 5 mM betaine; Q-band, four-pulse sequence; distance distributions by Tikhonov regularisation

B1: BetP G450R5/S516R5 in the background of the C252T cys-less variant (spin-labelled glycine betaine symporter BetP of Corynebacterium glutamicum) (natural protein, UniProt P54582 1-595, looked up)
chain: MTTSDPNPKPIVEDAQPEQITATEELAGLLENPTNLEGKLADAEEEIILEGEDTQASLNWSVIVPALVIVLATVVWGIGFKDSFTNFASSALSAVVDNLGWAFILFGTVFVFFIVVIAASKFGTIRLGRIDEAPEFRTVSWISMMFAAGMGIGLMFYGTTEPLTFYRNGVPGHDEHNVGVAMSTTMFHWTLHPWAIYAIVGLAIAYSTFRVGRKQLLSSAFVPLIGEKGAEGWLGKLIDILAIIATVFGTATSLGLGALQIGAGLSAANIIEDPSDWTIVGIVSVLTLAFIFSAISGVGKGIQYLSNANMVLAALLAIFVFVVGPTVSILNLLPGSIGNYLSNFFQMAGRTAMSADGTAGEWLGSWTIFYWAWWISWSPFVGMFLARISRGRSIREFILGVLLVPAGVSTVWFSIFGGTAIVFEQNGESIWGDGAAEEQLFGLLHALPGCQIMGIIAMILLGTFFITSADSASTVMGTMSQHGQLEANKWVTAAWGVATAAIGLTLLLSGGDNALCNLQNVTIVAATPFLFVVIGLMFALVKDLSNDVIYLEYREQQRFNARLARERRVHNEHRKRELAAKRRRERKASGAGKRR
modifications: R5 spin label ((1-oxyl-2,2,5,5-tetramethylpyrrolidin-3-yl)methyl methanethiosulfonate) on the cysteines introduced at positions 450 and 516
notes: Glycine betaine symporter BetP (betaine permease), Corynebacterium glutamicum; expressed from pASK-IBA5betP; cys-less C252T background with cysteines introduced at G450 and S516; also called periplasmic spin label pair; betaine permease
- binding result: binds
